Measurements reported in the supplement of paper PMC12764529.
± gives the half width of the 95% confidence interval.

assay: folding stability dG unfold from chymotrypsin proteolysis; higher = more stable
Method in brief: (§1)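 Designed mini-proteins (under 80 residues, no cysteine) in a PA-tagged cDNA display construct were digested with trypsin and chymotrypsin. Each protease was used at 11 concentrations (threefold dilutions) plus a no-protease condition, followed by sequencing. K50 was inferred by Bayesian fitting of sequencing counts, and unfolding free energy was derived against a sequence-predicted unfolded-state K50 and a shared folded-state K50, per protease or combined. Only designs with AlphaFold2 dimer inter-PAE above 15 were kept.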

Sequence	folding stability dG unfold
SAGGSAGGSAGGGKKILGVQPELFYDPENGTLYVKTVAVGEDENGAPGDADISVEPFPLLSAGGSAGGSAGG [r7_892_TrMRF]	-0.596 ± 0.54 kcal/mol
KIKELAKKLGLNVTVKVEKKPIKNPDGSTYTITKVEVTVDKKNKTITIKVEVKNKKTNKTITKTYTIKLKKS [r1_448_TrROS_Hall]	2.26 ± 0.11 kcal/mol
SAGGSWLPPGMWIISISIKWEMREMTFSPNGQPEMEMRLEIDIQVIKIPPPPPPPKEDAKNPNGKWSAGGSA [r2_495_TrROS]	2.22 ± 0.3 kcal/mol
SAGGSMLEVYYRIPPDIPLEEALERVAREVEEVLRARYGGPVTVEAEEVERPPDDETLLRVLVRFESAGGSA [r2_214_TrMRF]	2.558 ± 0.024 kcal/mol
SAGGSAGGSMFEEEEIEIERPDGTTIKVKVEILPDGTRVLTITDPKEGKTTTVTLSPNEEILLSAGGSAGGS [r20_45_JUSTAS]	0.464 ± 0.049 kcal/mol
SAGEYVLVEVERGGKVETFVLPPELAKELLEKYSPDSEIPVKLEGREVRLRVLPIKPKEPTPEELAKAASAG [r5_669_TrMRF]	1.85 ± 0.14 kcal/mol
SVYNPNNPNIPTKLTVTIPVPEEVVAAGDTAAAEAAAEATAAALAPEGWRVTSVSFPRETGTMTVTLTRPSA [r9_75_JUSTAS]	1.16 ± 0.11 kcal/mol
SAGGSAGGGSFTLTEEPGGVLTITTPDKTLTVNLEGVTPDPNSDTTFSFTLSLDPDDSASVTSSSAGGSAGG [r6_202_JUSTAS]	1.43 ± 0.091 kcal/mol
SAGGMPKYFAEVDTEPHGDKVKITLRIRDPNGVERELTFELPLSEVIKLLKELPEEFEVFELKFSDESAGGS [r16_298_TrMRF]	3.12 ± 0.034 kcal/mol
SAGGMTITVPVDEEEAEEFIREATGELTALAEKYPDVPIEIEFPLKSGRVIRLRVYPKSKKVEIEVYDSAGG [r13_216_TrMRF]	2.559 ± 0.024 kcal/mol
SAGGSAGGSGSSTSANAGGIVTSSSTVPLPPDTRPVSVSTSTPSSKPVKTTVLPDKTVTTPLGSAGGSAGGS [r12_994_JUSTAS]	1.55 ± 0.028 kcal/mol
SAGPRPIEIYVDPDGMINIRFPNNGREINIPIPKGAEIEIIELPDDYIVIEIKFGGETREFWIPPEDISAGG [r19_309_TrROS]	3.08 ± 0.064 kcal/mol
SAKRVNVEIWIPGDWDEIQEIAEDINFPVEIERNPDKPDMYRITFTFPTPEKAPKILDALNKHGMQIEISAG [r14_745_TrROS]	1.89 ± 0.081 kcal/mol
SAGAHTVSVHYVEPGSKKLSSVETSEITLEPGEELPLDEVAARFPSENYEVTAQEEPDAITITIYVYRGSAG [r5_269_JUSTAS]	0.522 ± 0.27 kcal/mol
SAGGSAGGMKYLDVVLHPDTGATYSSLEEIKASSSGPFQIKTGDGKWIYLPVEELSSLPTPLASSAGGSAGG [r6_685_JUSTAS]	0.331 ± 0.048 kcal/mol
SPTQTITLTLPDRPVTVPLTAYPETGYVEITVTVTYPTGTKTYTFTVKAKSFEEVLAELSKLPEDFDINPSA [r9_713_TrMRF]	1.81 ± 0.088 kcal/mol
SAGGSAGGSIFIHWTYEMEHERDPDDPDEPRMKMKIKDWVISIPEDDPDKLKELADKLGIPIISAGGSAGGS [r12_249_TrROS]	1.69 ± 0.068 kcal/mol
SAGGSAGGSAKSVVRIKIYNKKTGKVLEIEIPENMTEEEIKKLAEELAKKNNVEIVEVEKVPSAGGSAGGSA [r18_322_TrROS_Hall]	2.99 ± 0.051 kcal/mol
SAGGSSKTEIYYNPKKPYFLIKVTYKNGKTKEYPIKGKGMSLEELKKKAEEIVKELNSEEFKEVVFNPSAGG [r13_267_TrMRF]	2.5 ± 0.082 kcal/mol
SAGGSAGGSAGMKVLVLRIRIERPEEELSEEDRAKLPPVRIEIELVEVELPPEVEVREEESAGGSAGGSAGG [r17_310_TrROS_Hall]	3.86 ± 0.11 kcal/mol
SAGGKKKKIEIEIVVKKEDLEKIAEELAKKLEEAGYKVKIKKIEVEVYKNKDGKIVYVKVRIEVEVEPSAGG [r13_707_TrROS_Hall]	4.82 ± 0.18 kcal/mol

Sequence	folding stability dG unfold
SAGGSAGGSEITILIKDENGYLIKVKVELKLKKNKDGKKTLELKIEITEIYKVPSKEEAKKLLSAGGSAGGS [r12_915_TrROS_Hall]	2.08 ± 0.11 kcal/mol
SAPLSEEEARQLLEEVAEELERETGASYRVELFRDPATGRWFGRIELPDGRVYTVTYDPATGEVTVTVEASA [r9_9_JUSTAS]	5.62 ± 0.069 kcal/mol
SAGGAEELAKRLAEELREAGYEVEVVKVERLENGEVVITMKVRVVKDGKEVEEREIKLVLKLPEELLSAGGS [r8_102_TrROS_Hall]	4.03 ± 0.069 kcal/mol
MYLVRIKIEYKTEDGEKVEKEITLLVEPSEEEAKEKAEELARKIAEELGLSEEEIKKIEVEVVKLGEELEES [r1_159_TrROS_Hall]	4.37 ± 0.12 kcal/mol
SADRIKINVMTHQSPDGRPYYMVSIRIPGNGKEIMGPIDSPEDAEEQAKEIADKLEKEGIPIEVEIYPMSAG [r14_263_TrROS]	1.82 ± 0.09 kcal/mol
SAGGGPLSPGSVPVEEEVTEVVEDPATGTVTTRSRVRYPDGVEVEVTTTTPAPGLPEVSTTEVTVRPASAGG [r13_894_JUSTAS]	0.948 ± 0.018 kcal/mol
SAGGSAGGMKTVTTPVYAVMPEEEAEALAKELEEKYPNVEIEVEREELPDGRVRVTITVTKPLGSAGGSAGG [r6_105_JUSTAS]	1.55 ± 0.054 kcal/mol
SAGGSAGGSAGGPKVEVTVKGKPATVEWFPEEGKARVTVPDGRVYVLDLNGDKLEIKPLSAGGSAGGSAGGS [r10_724_TrMRF]	0.588 ± 0.13 kcal/mol
SAGGSAGGMKVYEIEVPPSSGLTPEEIRARVREEIEASNNAPVEVTVEVDPNGRLTVTIKITPLSAGGSAGG [r6_819_JUSTAS]	1.28 ± 0.054 kcal/mol
SGMDSNPKTTTENISFEEALKRLPSSVTSVEPRGESVVIKQSSPDSLTVVTMTRDPSSDSAPATTTTYLSSA [r9_604_JUSTAS]	0.181 ± 0.36 kcal/mol
SAGMILPPNTVVTLSTTTTEELPLFTDGSGPRTTTTETVVTVEPVPVNPYPDPAVREKLLAEGKPLELLSAG [r5_624_JUSTAS]	-0.207 ± 0.13 kcal/mol
SAGGSAGGSAGPKPPPVYRLRIVNPDGEVYEFEVPADMSPEEIAKRLGLPPGARVELEKVSAGGSAGGSAGG [r11_340_TrROS_Hall]	3.35 ± 0.081 kcal/mol
SAGGSAMVETKTFEFEFEFEFENPDGEPATVTVPVTVEVPVLVPVAAPGPPGANGPEKELEELEKESAGGSA [r15_728_TrMRF]	0.641 ± 0.065 kcal/mol
SAGGSAGGSAGGSIPPSDVTTEVDPNTPLTTVTYPSGVVVTETFPPDGTSTTTVDTAAGSAGGSAGGSAGGS [r10_170_JUSTAS]	1.23 ± 0.028 kcal/mol
SAGGSAGGWIIRIHFPNGHEHTFKIKSPEEAKDRIMDHHGMPPDKIPPETIKDVEIIPPDAMKESAGGSAGG [r6_588_TrROS]	0.604 ± 0.12 kcal/mol
SAKKVKIEIKNKETNKIYTIEIKEDGKVTIKNKETGEEIEVEINGKKITFPPGASIDEIIKKLEEALKKSAG [r14_561_TrROS_Hall]	2.77 ± 0.12 kcal/mol
SAGGSAGGSAGGSIVIEVDTLEEAKKLAEKLNLKVTEVKEVDGKLYVKIEIKSPEELKKSAGGSAGGSAGGS [r10_218_TrROS_Hall]	2.002 ± 0.018 kcal/mol
SAGSPATLRAQAEEEARALAAELGAEVTVDVTVEPVPGEYVVRTTATLTFPGGEVRTLPRTTRVPRSLVSAG [r5_609_JUSTAS]	1.09 ± 0.08 kcal/mol
SAGGSAGGSAGGDPKKKKGGTFTLTFKLKFTVNIPEGKVEYEFKAKIKITINEPPDFGLSSAGGSAGGSAGG [r7_485_TrMRF]	5.81 ± 0.23 kcal/mol
SAGELTAEEIAERLRKLLEELGIEEVEVEVEEVEVEEEEEPVEEEEEEELSEEERERLRRERLEEEGLLSAG [r5_9_TrROS_Hall]	2.1 ± 0.037 kcal/mol
SAGGSAGGSAGMKTYTAEEIKNLPPGAKVIEVDGKLKIEIDGKIYTIEPGETVEIEPLEESAGGSAGGSAGG [r17_91_TrROS_Hall]	2.04 ± 0.043 kcal/mol

assay: folding stability dG unfold from trypsin proteolysis; higher = more stable
Method in brief: as §1

Sequence	folding stability dG unfold
SAGGSAGGSAGGGKKILGVQPELFYDPENGTLYVKTVAVGEDENGAPGDADISVEPFPLLSAGGSAGGSAGG [r7_892_TrMRF]	0.242 ± 0.053 kcal/mol
KIKELAKKLGLNVTVKVEKKPIKNPDGSTYTITKVEVTVDKKNKTITIKVEVKNKKTNKTITKTYTIKLKKS [r1_448_TrROS_Hall]	2.37 ± 0.12 kcal/mol
SAGGSWLPPGMWIISISIKWEMREMTFSPNGQPEMEMRLEIDIQVIKIPPPPPPPKEDAKNPNGKWSAGGSA [r2_495_TrROS]	0.946 ± 0.15 kcal/mol
SAGGSMLEVYYRIPPDIPLEEALERVAREVEEVLRARYGGPVTVEAEEVERPPDDETLLRVLVRFESAGGSA [r2_214_TrMRF]	1.7 ± 0.03 kcal/mol
SAGGSAGGSMFEEEEIEIERPDGTTIKVKVEILPDGTRVLTITDPKEGKTTTVTLSPNEEILLSAGGSAGGS [r20_45_JUSTAS]	2.15 ± 0.12 kcal/mol
SAGEYVLVEVERGGKVETFVLPPELAKELLEKYSPDSEIPVKLEGREVRLRVLPIKPKEPTPEELAKAASAG [r5_669_TrMRF]	0.306 ± 0.085 kcal/mol
SVYNPNNPNIPTKLTVTIPVPEEVVAAGDTAAAEAAAEATAAALAPEGWRVTSVSFPRETGTMTVTLTRPSA [r9_75_JUSTAS]	1.32 ± 0.022 kcal/mol
SAGGSAGGGSFTLTEEPGGVLTITTPDKTLTVNLEGVTPDPNSDTTFSFTLSLDPDDSASVTSSSAGGSAGG [r6_202_JUSTAS]	1.44 ± 0.023 kcal/mol
SAGGMPKYFAEVDTEPHGDKVKITLRIRDPNGVERELTFELPLSEVIKLLKELPEEFEVFELKFSDESAGGS [r16_298_TrMRF]	2.05 ± 0.042 kcal/mol
SAGGMTITVPVDEEEAEEFIREATGELTALAEKYPDVPIEIEFPLKSGRVIRLRVYPKSKKVEIEVYDSAGG [r13_216_TrMRF]	2.48 ± 0.057 kcal/mol
SAGGSAGGSGSSTSANAGGIVTSSSTVPLPPDTRPVSVSTSTPSSKPVKTTVLPDKTVTTPLGSAGGSAGGS [r12_994_JUSTAS]	1.01 ± 0.035 kcal/mol
SAGPRPIEIYVDPDGMINIRFPNNGREINIPIPKGAEIEIIELPDDYIVIEIKFGGETREFWIPPEDISAGG [r19_309_TrROS]	4.04 ± 0.13 kcal/mol
SAKRVNVEIWIPGDWDEIQEIAEDINFPVEIERNPDKPDMYRITFTFPTPEKAPKILDALNKHGMQIEISAG [r14_745_TrROS]	1.33 ± 0.063 kcal/mol
SAGAHTVSVHYVEPGSKKLSSVETSEITLEPGEELPLDEVAARFPSENYEVTAQEEPDAITITIYVYRGSAG [r5_269_JUSTAS]	0.303 ± 0.062 kcal/mol
SAGGSAGGMKYLDVVLHPDTGATYSSLEEIKASSSGPFQIKTGDGKWIYLPVEELSSLPTPLASSAGGSAGG [r6_685_JUSTAS]	0.0571 ± 0.039 kcal/mol
SPTQTITLTLPDRPVTVPLTAYPETGYVEITVTVTYPTGTKTYTFTVKAKSFEEVLAELSKLPEDFDINPSA [r9_713_TrMRF]	1.83 ± 0.073 kcal/mol
SAGGSAGGSIFIHWTYEMEHERDPDDPDEPRMKMKIKDWVISIPEDDPDKLKELADKLGIPIISAGGSAGGS [r12_249_TrROS]	0.577 ± 0.087 kcal/mol
SAGGSAGGSAKSVVRIKIYNKKTGKVLEIEIPENMTEEEIKKLAEELAKKNNVEIVEVEKVPSAGGSAGGSA [r18_322_TrROS_Hall]	1.83 ± 0.051 kcal/mol
SAGGSSKTEIYYNPKKPYFLIKVTYKNGKTKEYPIKGKGMSLEELKKKAEEIVKELNSEEFKEVVFNPSAGG [r13_267_TrMRF]	2.02 ± 0.12 kcal/mol
SAGGSAGGSAGMKVLVLRIRIERPEEELSEEDRAKLPPVRIEIELVEVELPPEVEVREEESAGGSAGGSAGG [r17_310_TrROS_Hall]	2.44 ± 0.14 kcal/mol
SAGGKKKKIEIEIVVKKEDLEKIAEELAKKLEEAGYKVKIKKIEVEVYKNKDGKIVYVKVRIEVEVEPSAGG [r13_707_TrROS_Hall]	3.05 ± 0.47 kcal/mol
